Test results taken from article PMC10161774.

Target: T1, Recombinant tissue transglutaminase (tG) (human), P21980
T1 chain: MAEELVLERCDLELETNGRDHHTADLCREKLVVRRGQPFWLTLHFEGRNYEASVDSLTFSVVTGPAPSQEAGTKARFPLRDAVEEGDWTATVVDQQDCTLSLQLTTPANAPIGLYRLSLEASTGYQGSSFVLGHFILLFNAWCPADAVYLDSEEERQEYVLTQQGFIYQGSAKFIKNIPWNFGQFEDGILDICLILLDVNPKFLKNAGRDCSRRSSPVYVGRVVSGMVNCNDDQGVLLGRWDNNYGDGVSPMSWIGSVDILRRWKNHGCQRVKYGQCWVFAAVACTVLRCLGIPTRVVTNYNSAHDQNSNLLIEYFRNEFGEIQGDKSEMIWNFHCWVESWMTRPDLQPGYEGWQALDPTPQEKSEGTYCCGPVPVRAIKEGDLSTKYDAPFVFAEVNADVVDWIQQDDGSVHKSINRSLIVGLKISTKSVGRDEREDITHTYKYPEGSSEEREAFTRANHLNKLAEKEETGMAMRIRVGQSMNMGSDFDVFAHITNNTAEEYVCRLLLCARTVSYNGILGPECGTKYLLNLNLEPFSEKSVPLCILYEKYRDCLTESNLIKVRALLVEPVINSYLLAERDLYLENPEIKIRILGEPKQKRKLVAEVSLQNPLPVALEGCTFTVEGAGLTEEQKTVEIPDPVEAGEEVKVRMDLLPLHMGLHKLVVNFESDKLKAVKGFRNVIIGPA
Experiment: time-resolved SAXS; Kenics mixer (straight opening device, reaction class 3); 2 mg ml^-1 tG mixed with 4 mM CaCl2 in 20 mM HEPES pH 7.5, 100 mM NaCl, 10% glycerol, 1 mM DTT; time points 32-1500 ms; monomer to dimer
Details: remark: other sources report otherwise

- stoichiometry N: 2
B1: Recombinant tissue transglutaminase (tG), P21980 1-687 (enzyme)
chain: T1 chain
